Positions count from the first letter of the chain named. Names and notes keep the numbering of the source.
T1: EsCas13d, nuclease-dead (Eubacterium siraeum, UniProt B0MS50, R295A;H300A;R849A;H854A)
T1 sequence: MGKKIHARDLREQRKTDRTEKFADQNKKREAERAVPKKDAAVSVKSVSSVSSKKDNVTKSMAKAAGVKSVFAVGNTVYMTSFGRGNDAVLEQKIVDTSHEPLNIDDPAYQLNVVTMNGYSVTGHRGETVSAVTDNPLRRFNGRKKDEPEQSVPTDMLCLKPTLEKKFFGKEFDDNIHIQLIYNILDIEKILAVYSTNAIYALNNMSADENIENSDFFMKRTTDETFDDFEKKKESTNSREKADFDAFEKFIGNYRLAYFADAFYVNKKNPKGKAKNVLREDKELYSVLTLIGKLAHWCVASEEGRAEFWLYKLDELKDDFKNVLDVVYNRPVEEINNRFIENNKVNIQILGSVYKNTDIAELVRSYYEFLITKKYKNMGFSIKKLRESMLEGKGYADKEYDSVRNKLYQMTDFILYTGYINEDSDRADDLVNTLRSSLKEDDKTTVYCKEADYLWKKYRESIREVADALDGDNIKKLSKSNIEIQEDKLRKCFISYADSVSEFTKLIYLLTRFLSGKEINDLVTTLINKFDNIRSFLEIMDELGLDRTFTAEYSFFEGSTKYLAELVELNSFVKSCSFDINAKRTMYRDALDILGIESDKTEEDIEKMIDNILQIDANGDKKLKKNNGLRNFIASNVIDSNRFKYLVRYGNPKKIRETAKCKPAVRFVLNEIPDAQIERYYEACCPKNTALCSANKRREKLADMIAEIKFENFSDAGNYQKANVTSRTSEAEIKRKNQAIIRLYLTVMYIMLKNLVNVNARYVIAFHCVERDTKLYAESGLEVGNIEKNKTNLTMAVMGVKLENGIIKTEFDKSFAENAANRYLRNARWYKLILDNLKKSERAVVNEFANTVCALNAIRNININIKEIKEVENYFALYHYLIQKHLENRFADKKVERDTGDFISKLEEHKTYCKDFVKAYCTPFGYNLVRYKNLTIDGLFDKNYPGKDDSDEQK

B1: target 1 MT 5'PFS GGC 3'PFS CUA (mixed)
RNA 1: CACCCGUGCAAAAAUGCAGGGGUCUAAAACUGAGCGGAUAACCUCUCUAUGG
RNA 2: GGGAAUGGAUCCACAUCUACGAAUUCGGCCCAUAGAGAGGUUAUCCGCUCACUAAGAUCGGAAGAGCACACGU
B2: target 1 MT 5'PFS GGA 3'PFS CAU (mixed)
RNA 1: B1 RNA 1
RNA 2: B1 RNA 2 with C29A, U53A, A54U
B3: target 1 C6G,G13A (mixed)
RNA 1: B1 RNA 1
RNA 2: B1 RNA 2 with G28U, C29A, G39A, C46G, U53C, A54G
B4: target 1 MT 5'PFS CUU 3'PFS AAA (mixed)
RNA 1: B1 RNA 1
RNA 2: B1 RNA 2 with G27C, G28U, C29U, C52A, U53A
B5: target 1 MT 5'PFS ACA 3'PFS UGU (mixed)
RNA 1: B1 RNA 1
RNA 2: B1 RNA 2 with G27A, G28C, C29A, C52U, U53G, A54U
B6: target 1 A9G,U10G (mixed)
RNA 1: B1 RNA 1
RNA 2: B1 RNA 2 with G28U, C29A, U42G, A43G, U53C, A54G
B7: target 1 MT 5'PFS GGG 3'PFS CCU (mixed)
RNA 1: B1 RNA 1
RNA 2: B1 RNA 2 with C29G, U53C, A54U
B8: target 1 MT 5'PFS GAC 3'PFS AGC (mixed)
RNA 1: B1 RNA 1
RNA 2: B1 RNA 2 with G28A, C52A, U53G, A54C
B9: target 1 MT 5'PFS CUU 3'PFS ACU (mixed)
RNA 1: B1 RNA 1
RNA 2: B1 RNA 2 with G27C, G28U, C29U, C52A, U53C, A54U
B10: target 1 MT 5'PFS UAU 3'PFS ACA (mixed)
RNA 1: B1 RNA 1
RNA 2: B1 RNA 2 with G27U, G28A, C29U, C52A, U53C
B11: target 1 insC 3' of 16,insA 3' of 4 (mixed)
RNA 1: B1 RNA 1
RNA 2: GGGAAUGGAUCCACAUCUACGAAUUCGUACCAUAGACGAGGUUAUCCGCAUCACCGAGAUCGGAAGAGCACACGU
B12: target 1 MT 5'PFS GAC 3'PFS AGA (mixed)
RNA 1: B1 RNA 1
RNA 2: B1 RNA 2 with G28A, C52A, U53G
B13: target 1 MT 5'PFS UGC 3'PFS CCU (mixed)
RNA 1: B1 RNA 1
RNA 2: B1 RNA 2 with G27U, U53C, A54U
B14: target 1 MT 5'PFS GCU 3'PFS AAU (mixed)
RNA 1: B1 RNA 1
RNA 2: B1 RNA 2 with G28C, C29U, C52A, U53A, A54U
B15: target 1 MT 5'PFS GUC 3'PFS UUA (mixed)
RNA 1: B1 RNA 1
RNA 2: B1 RNA 2 with G28U, C52U
B16: target 1 MT 5'PFS UUG 3'PFS ACU (mixed)
RNA 1: B1 RNA 1
RNA 2: B1 RNA 2 with G27U, G28U, C29G, C52A, U53C, A54U
B17: target 1 MT 5'PFS UAU 3'PFS ACU (mixed)
RNA 1: B1 RNA 1
RNA 2: B1 RNA 2 with G27U, G28A, C29U, C52A, U53C, A54U
B18: target 1 MT 5'PFS GCU 3'PFS UGA (mixed)
RNA 1: B1 RNA 1
RNA 2: B1 RNA 2 with G28C, C29U, C52U, U53G
B19: target 1 MT 5'PFS UGC 3'PFS CCC (mixed)
RNA 1: B1 RNA 1
RNA 2: B1 RNA 2 with G27U, U53C, A54C
B20: target 1 MT 5'PFS GUC 3'PFS UUU (mixed)
RNA 1: B1 RNA 1
RNA 2: B1 RNA 2 with G28U, C52U, A54U
B21: target 1 insU 3' of 7,insA 3' of 3 (mixed)
RNA 1: B1 RNA 1
RNA 2: GGGAAUGGAUCCACAUCUACGAAUUCGUACCAUAGAGAGGUUAUCUCGCUACACCGAGAUCGGAAGAGCACACGU
B22: target 1 MT 5'PFS UGC 3'PFS CCG (mixed)
RNA 1: B1 RNA 1
RNA 2: B1 RNA 2 with G27U, U53C, A54G
B23: target 1 MT 5'PFS AGU 3'PFS UUG (mixed)
RNA 1: B1 RNA 1
RNA 2: B1 RNA 2 with G27A, C29U, C52U, A54G
B24: target 1 MT 5'PFS GGG 3'PFS AAG (mixed)
RNA 1: B1 RNA 1
RNA 2: B1 RNA 2 with C29G, C52A, U53A, A54G
B25: target 1 MT 5'PFS GCU 3'PFS UGC (mixed)
RNA 1: B1 RNA 1
RNA 2: B1 RNA 2 with G28C, C29U, C52U, U53G, A54C
B26: target 1 MT 5'PFS ACA 3'PFS UGA (mixed)
RNA 1: B1 RNA 1
RNA 2: B1 RNA 2 with G27A, G28C, C29A, C52U, U53G
B27: target 1 MT 5'PFS GCU 3'PFS AAC (mixed)
RNA 1: B1 RNA 1
RNA 2: B1 RNA 2 with G28C, C29U, C52A, U53A, A54C
B28: target 1 MT 5'PFS UAG 3'PFS AGA (mixed)
RNA 1: B1 RNA 1
RNA 2: B1 RNA 2 with G27U, G28A, C29G, C52A, U53G
B29: target 1 MT 5'PFS UCA 3'PFS UGU (mixed)
RNA 1: B1 RNA 1
RNA 2: B1 RNA 2 with G27U, G28C, C29A, C52U, U53G, A54U
B30: target 1 MT 5'PFS GGG 3'PFS CCG (mixed)
RNA 1: B1 RNA 1
RNA 2: B1 RNA 2 with C29G, U53C, A54G
B31: target 1 MT 5'PFS GCC 3'PFS CAU (mixed)
RNA 1: B1 RNA 1
RNA 2: B1 RNA 2 with G28C, U53A, A54U
B32: target 1 MT 5'PFS GGG 3'PFS ACC (mixed)
RNA 1: B1 RNA 1
RNA 2: B1 RNA 2 with C29G, C52A, U53C, A54C
B33: target 1 MT 5'PFS GGG 3'PFS CCC (mixed)
RNA 1: B1 RNA 1
RNA 2: B1 RNA 2 with C29G, U53C, A54C
B34: target 1 MT 5'PFS GCU 3'PFS GCU (mixed)
RNA 1: B1 RNA 1
RNA 2: B1 RNA 2 with G28C, C29U, C52G, U53C, A54U
B35: target 1 MT 5'PFS UAG 3'PFS AGU (mixed)
RNA 1: B1 RNA 1
RNA 2: B1 RNA 2 with G27U, G28A, C29G, C52A, U53G, A54U
B36: target 1 MT 5'PFS CUU 3'PFS UCU (mixed)
RNA 1: B1 RNA 1
RNA 2: B1 RNA 2 with G27C, G28U, C29U, C52U, U53C, A54U
B37: target 1 MT 5'PFS GCC 3'PFS ACG (mixed)
RNA 1: B1 RNA 1
RNA 2: B1 RNA 2 with G28C, C52A, U53C, A54G
B38: target 1 MT 5'PFS GCC 3'PFS CAC (mixed)
RNA 1: B1 RNA 1
RNA 2: B1 RNA 2 with G28C, U53A, A54C
B39: target 1 MT 5'PFS UAU 3'PFS ACC (mixed)
RNA 1: B1 RNA 1
RNA 2: B1 RNA 2 with G27U, G28A, C29U, C52A, U53C, A54C
B40: target 1 MT 5'PFS GGC 3'PFS CUG (mixed)
RNA 1: B1 RNA 1
RNA 2: B1 RNA 2 with A54G

molecular target: T1, EsCas13d, nuclease-dead; assay: crRNA (strand 1, pre-loaded); Mg2+; 40 mM Tris-HCl pH 7.5, 150 mM NaCl, 6 mM MgCl2, 1 mM DTT, 0.1% Tween-20, 0.2 mg/ml BSA; 25 C; 10 min per concentration, then washed; conditions: tags: His6-TwinStrep-SUMO cleaved; N-terminal SNAP kept (SNAP-Surface 488); label: 3' end held by stalled T7 RNA polymerase

Binder | Kd [nM]
B1 | 15.2 ± 4.25
B2 | 50.5 ± 18
B3 | 10.1 ± 0.7
B4 | ~70
B5 | 45 ± 12
B6 | 37 ± 4
B7 | 18.5 ± 7
B8 | 13.6 ± 2.6
B9 | 29.5 ± 10.5
B10 | 54 ± 20.5
B11 | 38 ± 17
B12 | 28 ± 14
B13 | 15.5 ± 4.5
B14 | ~82.5
B15 | 12.2 ± 2.45
B16 | 21 ± 5
B17 | 29 ± 5
B18 | 100 ± 40
B19 | ~23
B20 | 15.1 ± 4.3

Binder | Kd [nM]
B21 | 20.4 ± 1.3
B22 | 11.8 ± 3.85
B23 | 47 ± 17
B24 | 23.9 ± 3.25
B25 | 38 ± 7
B26 | 15.5 ± 4.5
B27 | ~80
B28 | 30 ± 5.5
B29 | 28.5 ± 5
B30 | 15.1 ± 3.45
B31 | ~12
B32 | 25.5 ± 8.5
B33 | ~50
B34 | 17 ± 5
B35 | 56.5 ± 16
B36 | 30.5 ± 9
B37 | 13.9 ± 3.7
B38 | ~34
B39 | 36 ± 15
B40 | 17.3 ± 4
